# Measurements reported in patent publication US20240343800A1 (Merck KGaA, published 2024).
# B1: 82H02 TCE #2 (sequence optimized 82H02 bispecific TCE in Format 1A, high ROR1 / low CD3 affinity) (bispecific antibody)
# heavy 1: EVQLVESGGGLVQPGGSLKLSCAASGFTFNTYAMNWVRQASGKGLEWVGRIRSKYNNYATYYADSVKGRFTISRDDSKNTLYLQMNSLKTEDTAVYYCVRHGNFGNSYVSWFAYWGQGTMVTVSSASTKGPSVFPLAPSSKSTSGGTAALGCLVKDYFPEPVTVSWNSGALTSGVHTFPAVLQSSGLYSLSSVVTVPSSSLGTQTYICNVNHKPSNTKVDKKVEPKSCDKTHTCPPCPAPEAAGGPSVFLFPPKPKDTLMISRTPEVTCVVVDVSHEDPEVKFNWYVDGVEVHNAKTKPREEQYNSTYRVVSVLTVLHQDWLNGKEYKCKVSNKALGAPIEKTISKAKGQPFRPEVHLLPPSREEMTKNQVSLTCLARGFYPKDIAVEWESNGQPENNYKTTPSRQEPSQGTTTFAVTSKLTVDKSRWQQGNVFSCSVMHEALHNHYTQKTISLSPGK
# heavy 2: EIVLTQSPATLSLSPGERATLSCRASQSVSSYLAWYQQKPGQAPRLLIYDASNRATGIPARFSGSGSGTDFTLTISSLEPEDFAVYYCQQRSNWPPSTFGQGTRLEIKGGGGSGGGGSGGGGSGGGGSEVQLLESGGGLVQPGGSLRLSCAASGFTFTSYAMSWVRQAPGKGLEWVSTISGSGGGTYYTDSVKGRFTISRDNSKNTLYLQMNSLRAEDTAVYYCAQGSSIFDYWGQGTLVTVSSEPKSSDKTHTCPPCPAPEAAGGPSVFLFPPKPKDTLMISRTPEVTCVVVDVSHEDPEVKFNWYVDGVEVHNAKTKPREEQYNSTYRVVSVLTVLHQDWLNGKEYKCKVSNKALGAPIEKTISKAKGQPREPQVYTLPPPSEELALNELVTLTCLVKGFYPSDIAVEWLQGSQELPREKYLTWAPVLDSDGSFFLYSILRVAAEDWKKGDTFSCSVMHEALHNHYTQKSLDRSPGKGGGGSGGGGSGGGGSGGGGSEIVLTQSPATLSLSPGERATLSCRASQSVSSYLAWYQQKPGQAPRLLIYDASNRATGIPARFSGSGSGTDFTLTISSLEPEDFAVYYCQQRSNWPPSTFGQGTRLEIKGGGGSGGGGSGGGGSGGGGSEVQLLESGGGLVQPGGSLRLSCAASGFTFTSYAMSWVRQAPGKGLEWVSTISGSGGGTYYTDSVKGRFTISRDNSKNTLYLQMNSLRAEDTAVYYCAQGSSIFDYWGQGTLVTVSS
# light: QTVVTQEPSLTVSPGGTVTLTCASSTGAVTTSNYANWVQQKPGQAPRALIGGTNKRAPGTPARFSGSLLGGKAALTLSGVQPEDEAEYYCALWYSNLWVFGGGTKLTVLGQPKAAPSVTLFPPSSEELQANKATLVCLISDFYPGAVTVAWKADSSPVKAGVETTTPSKQSNNKYAASSYLSLTPEQWKSHRSYSCQVTHEGSTVEKTVAPTECS
# notes: also called 82H02 #2; 82H02 VL1.07x1F3.5-VH1.01-VL1.01
# What was measured:
# human ROR1 (on cells) [1] = biological target: T1, human ROR1 (on cells) (human, UniProt Q01973 30-937); assay: cell-based or functional assay
# human ROR1 (on cells) [2] = biological target: T1, human ROR1 (on cells); assay: cell-based or functional assay; remark: listed apart in the source
# human ROR1 (on cells) [3] = biological target: T1, human ROR1 (on cells); assay: cell-based or functional assay; remark: listed apart in the source
# human ROR1 (on cells) [4] = biological target: T1, human ROR1 (on cells); assay: cell-based or functional assay; remark: listed apart in the source
# [5] = biological target: T2, human CD3 (on Jurkat T cells or human CD8+ T cells) (human, UniProt P07766 23-207; P09693 23-182; P04234 22-171; P20963 22-164); assay: flow cytometry, human CD8+ T cells
# T2 construct: Entries are printed with signal peptides; also called huCD3; CD3ε
# T2 sequence (P07766 23-207 limits assumed, chain 1 of 4): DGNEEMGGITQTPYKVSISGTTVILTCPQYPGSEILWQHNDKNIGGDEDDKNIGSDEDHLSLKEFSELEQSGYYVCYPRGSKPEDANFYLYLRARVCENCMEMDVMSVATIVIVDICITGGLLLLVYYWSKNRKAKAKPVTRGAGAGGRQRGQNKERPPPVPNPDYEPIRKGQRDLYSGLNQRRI
# T2 sequence (P09693 23-182 limits assumed, chain 2 of 4): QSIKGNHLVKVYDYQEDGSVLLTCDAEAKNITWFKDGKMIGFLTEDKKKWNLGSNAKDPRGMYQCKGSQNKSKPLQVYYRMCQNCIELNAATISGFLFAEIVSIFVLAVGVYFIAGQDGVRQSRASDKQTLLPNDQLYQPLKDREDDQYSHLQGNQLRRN
# T2 sequence (P04234 22-171 limits assumed, chain 3 of 4): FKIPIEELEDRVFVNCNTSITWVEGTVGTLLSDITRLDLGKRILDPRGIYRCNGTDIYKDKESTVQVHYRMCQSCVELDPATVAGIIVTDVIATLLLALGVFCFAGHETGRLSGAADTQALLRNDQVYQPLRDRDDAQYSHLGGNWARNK
# T2 sequence (P20963 22-164 limits assumed, chain 4 of 4): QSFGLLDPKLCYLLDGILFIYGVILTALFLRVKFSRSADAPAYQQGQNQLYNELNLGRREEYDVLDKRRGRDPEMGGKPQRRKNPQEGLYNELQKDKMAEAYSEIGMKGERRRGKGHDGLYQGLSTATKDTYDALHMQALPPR
# Method: (§1) After 15-minutes of incubation at room temperature, the cells were washed twice with 200 μL of PBS by centrifugation at 500×g for 5 minutes at room temperature and resuspended in […] of 10% goat serum in BD staining buffer (BD Biosciences, Cat No: 554657). […] The plates were then covered with foil to avoid direct light and incubated for 60 minutes at 4° C. […] After incubating for 30 minutes at 4° C., the cells were washed twice with 200 μL of PBS by centrifugation at 500×g for 5 minutes at room temperature and resuspended into 100 μL of fixation buffer (BioLegend, Cat No: 420801). The samples were then analyzed on a flow cytometer for binding signal using FlowJo software. ROR and CD3 binding EC₅₀s (concentration vs mean fluorescence intensity (MFI)) for reference molecules and test bispecific TCEs were obtained using 4-parameter non-linear regression curve fitting in GraphPad Prism.
# [6] = biological target: T3, cynomolgus CD3 (on cynomolgus pan-T cells) (cynomolgus, UniProt Q95LI5 22-198); assay: flow cytometry, cynomolgus pan-T cells
# T3 construct: whole, on cells
# T3 sequence (Q95LI5 22-198): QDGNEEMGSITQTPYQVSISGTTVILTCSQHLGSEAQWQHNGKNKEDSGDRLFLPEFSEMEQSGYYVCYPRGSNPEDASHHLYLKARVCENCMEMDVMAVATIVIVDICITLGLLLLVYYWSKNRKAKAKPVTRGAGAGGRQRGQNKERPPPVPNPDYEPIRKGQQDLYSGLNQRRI
# Method: as §1
# human ROR1 (on cells) [7] = biological target: T1, human ROR1 (on cells); assay: flow cytometry, ROR1+ MDA-MB-231 cells
# Method: as §1
# [8] = biological target: T4, mouse ROR1 (on 4T1 cells engineered to overexpress it) (mouse, UniProt Q9Z139 30-937); assay: flow cytometry, 4T1 cells overexpressing mouse ROR1
# T4 construct: whole, on cells; also called muROR1; mROR1
# Method: as §1
# [9] = biological target: T4, mouse ROR1 (on 4T1 cells engineered to …); assay: flow cytometry; reference: human ROR1 on MDA-MB-231 cells
binder,measurement,setting,value
B1,"TDCC EC50, PBMCs: MDA-MB-231",human ROR1 (on cells) [1],43.9 nM
same,"IFNγ release EC50, PBMCs: MDA-MB-231",human ROR1 (on cells) [2],265 nM
same,"Max IFNγ, PBMCs: MDA-MB-231",human ROR1 (on cells) [2],1000 pg/mL
same,"TDCC AUC, PBMCs: MDA-MB-231-0.2",human ROR1 (on cells) [3],35700
same,"TDCC AUC, PBMCs: MDA-MB-231-0.4",human ROR1 (on cells) [3],47600
same,"TDCC AUC, PBMCs: MDA-MB-231-0.6",human ROR1 (on cells) [3],54100
same,"TDCC AUC, PBMCs: MDA-MB-231-1.3",human ROR1 (on cells) [3],63700
same,"TDCC AUC, PBMCs: MDA-MB-231-7",human ROR1 (on cells) [3],72000
same,"TDCC EC50, PBMCs: MDA-MB-231-0.2",human ROR1 (on cells) [3],0.0137 nM
same,"TDCC EC50, PBMCs: MDA-MB-231-0.4",human ROR1 (on cells) [3],0.0125 nM
same,"TDCC EC50, PBMCs: MDA-MB-231-0.6",human ROR1 (on cells) [3],0.0105 nM
same,"TDCC EC50, PBMCs: MDA-MB-231-1.3",human ROR1 (on cells) [3],0.00896 nM
same,"TDCC EC50, PBMCs: MDA-MB-231-7",human ROR1 (on cells) [3],0.0047 nM
same,"TDCC Emax, PBMCs: MDA-MB-231-0.2",human ROR1 (on cells) [3],37.5%
same,"TDCC Emax, PBMCs: MDA-MB-231-0.4",human ROR1 (on cells) [3],50.2%
same,"TDCC Emax, PBMCs: MDA-MB-231-0.6",human ROR1 (on cells) [3],56.8%
same,"TDCC Emax, PBMCs: MDA-MB-231-1.3",human ROR1 (on cells) [3],65.4%
same,"TDCC Emax, PBMCs: MDA-MB-231-7",human ROR1 (on cells) [3],74.1%
same,"IFNγ release AUC, PBMCs: MDA-MB-231-0.2",human ROR1 (on cells) [4],1.55e+06
same,"IFNγ release AUC, PBMCs: MDA-MB-231-0.4",human ROR1 (on cells) [4],2.03e+06
same,"IFNγ release AUC, PBMCs: MDA-MB-231-0.6",human ROR1 (on cells) [4],9.77e+06
same,"IFNγ release AUC, PBMCs: MDA-MB-231-1.3",human ROR1 (on cells) [4],4.49e+06
same,"IFNγ release AUC, PBMCs: MDA-MB-231-7",human ROR1 (on cells) [4],4.68e+06
same,"IFNγ release EC50, PBMCs: MDA-MB-231-0.2",human ROR1 (on cells) [4],0.192 nM
same,"IFNγ release EC50, PBMCs: MDA-MB-231-0.4",human ROR1 (on cells) [4],0.151 nM
same,"IFNγ release EC50, PBMCs: MDA-MB-231-0.6",human ROR1 (on cells) [4],0.0977 nM
same,"IFNγ release EC50, PBMCs: MDA-MB-231-1.3",human ROR1 (on cells) [4],0.0306 nM
same,"IFNγ release EC50, PBMCs: MDA-MB-231-7",human ROR1 (on cells) [4],0.0265 nM
same,"IFNγ release Emax, PBMCs: MDA-MB-231-0.2",human ROR1 (on cells) [4],2270%
same,"IFNγ release Emax, PBMCs: MDA-MB-231-0.4",human ROR1 (on cells) [4],2670%
same,"IFNγ release Emax, PBMCs: MDA-MB-231-0.6",human ROR1 (on cells) [4],3670%
same,"IFNγ release Emax, PBMCs: MDA-MB-231-1.3",human ROR1 (on cells) [4],4850%
same,"IFNγ release Emax, PBMCs: MDA-MB-231-7",human ROR1 (on cells) [4],4970%
same,EC50,[5],19.8 nM
same,EC50,[6],26.2 nM
same,EC50,human ROR1 (on cells) [7],0.72 nM
same,EC50,[8],2.24 nM
same,fold difference in apparent ROR1 binding affinity between human and mouse ROR1,[9],~3 fold
